# Source: the supplement of paper PMC10065799, “High-throughput profiling of sequence recognition by tyrosine kinases and SH2 domains using bacterial peptide display” (eLife, 2023)
# Key:
# [1] = system: AncSZ; experiment: phosphorylation enrichment, bacterial display (enrichment ratio); higher = better substrate or ligand; peptides without Tyr show the background
# [2] = biological target: EPHB1 (UniProt P54762); experiment: as above
# [3] = biological target: EPHB2 (UniProt P29323); experiment: as above
# [4] = biological target: FGFR1 (UniProt P11362); experiment: as above
# [5] = biological target: FGFR3 (UniProt P22607); experiment: as above
# [6] = system: Fer (mouse); experiment: as above
# [7] = biological target: Fes (UniProt P07332); experiment: as above
# [8] = biological target: Fyn (UniProt P06241); experiment: as above
# [9] = biological target: Hck (UniProt P08631); experiment: as above
# [10] = biological target: Jak2 (UniProt O60674); experiment: as above
# [11] = biological target: MERTK (UniProt Q12866); experiment: as above
# [12] = system: c-Abl (mouse); experiment: as above
# [13] = system: c-Src; experiment: as above
# [14] = biological target: Grb2 SH2 (UniProt P62993); experiment: SH2 binding enrichment of the phosphorylated peptide, bacterial display (enrichment ratio); higher = better substrate or ligand; peptides without Tyr show the background
# [15] = biological target: SHP2-C SH2; experiment: as above
# [16] = biological target: c-Src SH2; experiment: as above
# 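For SH2 binding enrichment of the phosphorylated peptide, bacterial display in this document: peptide library displayed on the E. coli surface as eCPX fusions, selected cells deep-sequenced, score is each peptide's frequency after selection divided by its frequency in the input.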
# 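For phosphorylation enrichment, bacterial display in this document: 11-residue human phosphosite peptides and single-mutation variants displayed on the E. coli surface, counted by deep sequencing, each peptide's frequency after selection divided by its frequency in the unselected input library; frequency after pTyr selection over input frequency; kinase dosed for 20-30% of maximal phosphorylation in three min.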
# Chain of Jak2 (O60674 whole entry, looked up): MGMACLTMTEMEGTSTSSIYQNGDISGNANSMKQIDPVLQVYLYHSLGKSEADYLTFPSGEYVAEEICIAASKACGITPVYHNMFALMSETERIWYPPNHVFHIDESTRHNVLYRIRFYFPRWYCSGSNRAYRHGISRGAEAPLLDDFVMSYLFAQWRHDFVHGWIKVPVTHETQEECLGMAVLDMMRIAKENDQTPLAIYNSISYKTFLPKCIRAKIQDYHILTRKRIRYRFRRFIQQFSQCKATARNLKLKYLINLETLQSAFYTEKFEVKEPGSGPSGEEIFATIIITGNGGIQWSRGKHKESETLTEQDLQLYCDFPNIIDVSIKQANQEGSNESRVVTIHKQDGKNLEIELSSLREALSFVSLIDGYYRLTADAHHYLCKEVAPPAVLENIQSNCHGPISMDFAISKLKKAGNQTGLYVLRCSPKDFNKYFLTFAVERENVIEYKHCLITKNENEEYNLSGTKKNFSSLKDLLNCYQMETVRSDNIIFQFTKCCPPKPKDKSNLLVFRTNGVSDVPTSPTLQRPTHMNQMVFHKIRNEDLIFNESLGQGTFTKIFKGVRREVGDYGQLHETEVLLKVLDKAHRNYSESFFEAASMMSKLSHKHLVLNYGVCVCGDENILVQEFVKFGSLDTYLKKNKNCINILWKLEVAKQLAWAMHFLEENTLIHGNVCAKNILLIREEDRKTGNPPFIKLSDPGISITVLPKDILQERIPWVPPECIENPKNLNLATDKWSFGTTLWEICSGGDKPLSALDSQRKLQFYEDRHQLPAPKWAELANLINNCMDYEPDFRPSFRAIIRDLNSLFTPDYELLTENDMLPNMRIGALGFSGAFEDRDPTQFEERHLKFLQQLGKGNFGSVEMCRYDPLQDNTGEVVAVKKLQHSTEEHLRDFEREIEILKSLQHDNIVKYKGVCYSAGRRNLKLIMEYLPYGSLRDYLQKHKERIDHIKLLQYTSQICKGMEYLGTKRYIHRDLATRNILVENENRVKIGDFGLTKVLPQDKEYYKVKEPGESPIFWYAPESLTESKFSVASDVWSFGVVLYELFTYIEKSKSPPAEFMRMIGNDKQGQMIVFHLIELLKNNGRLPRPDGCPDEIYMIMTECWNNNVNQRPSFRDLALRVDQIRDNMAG
# Chain of FGFR3 (P22607 whole entry, looked up): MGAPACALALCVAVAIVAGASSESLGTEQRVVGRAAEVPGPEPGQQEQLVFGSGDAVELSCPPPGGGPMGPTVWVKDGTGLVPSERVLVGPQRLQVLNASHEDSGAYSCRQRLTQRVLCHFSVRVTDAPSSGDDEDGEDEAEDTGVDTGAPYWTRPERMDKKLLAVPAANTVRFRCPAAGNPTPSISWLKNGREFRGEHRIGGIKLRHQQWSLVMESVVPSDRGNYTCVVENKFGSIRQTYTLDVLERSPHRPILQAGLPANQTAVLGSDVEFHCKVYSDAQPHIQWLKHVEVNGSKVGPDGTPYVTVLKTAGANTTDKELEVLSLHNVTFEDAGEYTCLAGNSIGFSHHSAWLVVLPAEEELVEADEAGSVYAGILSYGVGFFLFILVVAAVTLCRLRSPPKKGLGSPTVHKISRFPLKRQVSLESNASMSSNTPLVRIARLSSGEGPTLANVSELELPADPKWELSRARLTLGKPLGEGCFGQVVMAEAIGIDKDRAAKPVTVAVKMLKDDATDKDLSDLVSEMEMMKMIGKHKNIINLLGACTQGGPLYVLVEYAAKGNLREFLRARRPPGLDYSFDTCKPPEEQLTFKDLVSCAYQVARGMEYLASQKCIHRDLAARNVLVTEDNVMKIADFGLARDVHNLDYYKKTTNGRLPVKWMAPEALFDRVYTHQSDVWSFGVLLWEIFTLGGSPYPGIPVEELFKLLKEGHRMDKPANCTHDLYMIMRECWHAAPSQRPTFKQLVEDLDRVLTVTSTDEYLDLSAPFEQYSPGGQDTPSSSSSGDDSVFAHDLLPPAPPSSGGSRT
# Chain of MERTK (Q12866 whole entry, looked up): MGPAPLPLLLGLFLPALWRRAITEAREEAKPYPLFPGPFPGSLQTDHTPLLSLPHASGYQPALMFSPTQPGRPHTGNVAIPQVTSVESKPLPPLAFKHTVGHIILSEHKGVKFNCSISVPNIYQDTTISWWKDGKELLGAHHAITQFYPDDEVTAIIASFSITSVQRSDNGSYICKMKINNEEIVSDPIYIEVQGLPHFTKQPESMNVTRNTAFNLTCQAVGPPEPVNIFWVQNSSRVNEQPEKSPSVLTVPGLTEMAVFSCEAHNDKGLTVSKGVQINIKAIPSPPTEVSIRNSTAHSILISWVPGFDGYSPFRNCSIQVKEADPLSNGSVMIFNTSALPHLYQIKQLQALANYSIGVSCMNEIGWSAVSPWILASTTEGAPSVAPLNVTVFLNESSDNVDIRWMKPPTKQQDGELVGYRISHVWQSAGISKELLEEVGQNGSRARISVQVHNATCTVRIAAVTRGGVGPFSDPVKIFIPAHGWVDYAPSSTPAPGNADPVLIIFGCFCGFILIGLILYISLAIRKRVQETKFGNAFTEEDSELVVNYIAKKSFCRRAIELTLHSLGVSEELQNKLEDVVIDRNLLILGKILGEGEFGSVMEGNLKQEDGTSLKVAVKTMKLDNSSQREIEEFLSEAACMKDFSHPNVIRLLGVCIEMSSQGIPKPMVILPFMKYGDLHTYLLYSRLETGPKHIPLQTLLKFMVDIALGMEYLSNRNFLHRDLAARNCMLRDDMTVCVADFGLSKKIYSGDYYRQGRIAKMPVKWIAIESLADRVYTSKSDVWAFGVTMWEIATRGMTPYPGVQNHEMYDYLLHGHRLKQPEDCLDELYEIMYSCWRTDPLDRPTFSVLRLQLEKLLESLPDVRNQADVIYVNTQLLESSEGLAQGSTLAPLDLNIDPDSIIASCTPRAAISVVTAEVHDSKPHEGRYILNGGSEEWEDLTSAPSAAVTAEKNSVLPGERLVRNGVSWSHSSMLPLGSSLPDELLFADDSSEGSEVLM
# Chain of EPHB2 (P29323 whole entry, looked up): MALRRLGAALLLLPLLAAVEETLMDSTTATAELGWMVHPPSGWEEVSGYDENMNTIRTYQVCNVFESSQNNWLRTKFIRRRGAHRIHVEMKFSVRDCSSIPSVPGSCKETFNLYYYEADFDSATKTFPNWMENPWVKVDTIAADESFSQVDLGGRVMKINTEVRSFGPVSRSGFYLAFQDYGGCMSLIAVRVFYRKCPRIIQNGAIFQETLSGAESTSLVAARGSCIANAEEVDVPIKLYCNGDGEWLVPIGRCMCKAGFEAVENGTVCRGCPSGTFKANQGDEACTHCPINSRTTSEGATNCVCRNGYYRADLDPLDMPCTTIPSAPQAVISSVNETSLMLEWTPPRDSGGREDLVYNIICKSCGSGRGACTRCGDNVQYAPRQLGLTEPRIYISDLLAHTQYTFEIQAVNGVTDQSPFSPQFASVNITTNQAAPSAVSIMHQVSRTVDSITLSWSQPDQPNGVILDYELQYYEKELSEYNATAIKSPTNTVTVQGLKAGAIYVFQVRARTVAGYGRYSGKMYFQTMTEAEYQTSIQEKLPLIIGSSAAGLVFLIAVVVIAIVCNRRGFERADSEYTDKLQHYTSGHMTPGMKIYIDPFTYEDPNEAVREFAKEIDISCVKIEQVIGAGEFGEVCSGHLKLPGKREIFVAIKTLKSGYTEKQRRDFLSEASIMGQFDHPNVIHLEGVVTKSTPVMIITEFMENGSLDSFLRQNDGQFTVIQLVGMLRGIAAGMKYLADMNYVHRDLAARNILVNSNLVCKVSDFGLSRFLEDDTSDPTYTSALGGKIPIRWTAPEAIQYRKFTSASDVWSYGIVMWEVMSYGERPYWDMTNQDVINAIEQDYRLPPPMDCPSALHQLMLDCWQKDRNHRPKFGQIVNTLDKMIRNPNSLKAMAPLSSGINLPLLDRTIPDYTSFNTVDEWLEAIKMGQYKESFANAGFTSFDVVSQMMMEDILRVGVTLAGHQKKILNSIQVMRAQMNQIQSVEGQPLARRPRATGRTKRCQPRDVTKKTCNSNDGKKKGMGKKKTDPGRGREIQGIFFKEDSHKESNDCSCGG
# Chain of Fyn (P06241 whole entry, looked up): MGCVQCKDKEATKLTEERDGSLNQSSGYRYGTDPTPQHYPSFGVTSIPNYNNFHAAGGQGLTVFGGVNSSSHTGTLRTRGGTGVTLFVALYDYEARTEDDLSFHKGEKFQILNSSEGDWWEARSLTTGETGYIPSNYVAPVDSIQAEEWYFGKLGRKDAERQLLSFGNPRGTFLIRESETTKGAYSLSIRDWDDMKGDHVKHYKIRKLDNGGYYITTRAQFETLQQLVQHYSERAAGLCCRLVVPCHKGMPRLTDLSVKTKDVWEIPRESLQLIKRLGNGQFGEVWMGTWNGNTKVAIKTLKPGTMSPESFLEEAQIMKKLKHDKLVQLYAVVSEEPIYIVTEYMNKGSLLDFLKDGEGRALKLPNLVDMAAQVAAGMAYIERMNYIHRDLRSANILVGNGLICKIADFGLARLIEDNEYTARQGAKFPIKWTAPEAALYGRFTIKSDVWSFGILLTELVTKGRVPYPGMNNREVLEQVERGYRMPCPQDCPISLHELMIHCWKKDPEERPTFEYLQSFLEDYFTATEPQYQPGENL
# Chain of Hck (P08631 whole entry, looked up): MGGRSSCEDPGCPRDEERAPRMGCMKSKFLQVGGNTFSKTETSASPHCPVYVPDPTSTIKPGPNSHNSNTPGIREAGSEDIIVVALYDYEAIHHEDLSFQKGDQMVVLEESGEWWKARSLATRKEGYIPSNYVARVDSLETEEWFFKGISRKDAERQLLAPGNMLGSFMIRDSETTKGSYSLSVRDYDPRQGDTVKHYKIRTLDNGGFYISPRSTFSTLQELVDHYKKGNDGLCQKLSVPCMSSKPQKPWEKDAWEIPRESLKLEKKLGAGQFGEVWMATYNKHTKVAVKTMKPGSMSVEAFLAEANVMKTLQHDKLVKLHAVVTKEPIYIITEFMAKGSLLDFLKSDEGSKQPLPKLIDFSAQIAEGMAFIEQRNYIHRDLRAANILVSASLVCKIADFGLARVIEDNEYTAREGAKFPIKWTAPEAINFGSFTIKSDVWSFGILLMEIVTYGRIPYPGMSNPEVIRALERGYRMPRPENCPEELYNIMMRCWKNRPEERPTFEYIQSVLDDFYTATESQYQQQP
Sequence,SH2 binding enrichment [14],SH2 binding enrichment [15],SH2 binding enrichment [16],phosphorylation enrichment [1],phosphorylation enrichment [2],phosphorylation enrichment [3],phosphorylation enrichment [4],phosphorylation enrichment [5],phosphorylation enrichment [6],phosphorylation enrichment [7],phosphorylation enrichment [8],phosphorylation enrichment [9],phosphorylation enrichment [10],phosphorylation enrichment [11],phosphorylation enrichment [12],phosphorylation enrichment [13]
CNTIHYNFMCN [TP53_Y234_T230N_YF],1.41,1.27,2.09,0.787,0.438,0.4,0.513,0.515,0.483,0.822,0.419,0.531,0.636,0.357,0.601,0.498
SLDHPYEKPRK [INAVA_Y333],0.852,0.683,1.77,0.741,0.349,0.467,0.339,0.421,0.388,0.63,0.371,0.39,0.436,0.329,0.423,0.352
DKGTLYIAEQI [PLBD1_Y375_V377A],0.664,0.54,0.44,0.763,0.565,0.446,0.441,0.666,0.372,0.887,0.459,0.447,0.743,0.346,0.65,0.383
PRSRSYFSTSI [REPS2_Y462_S463F],1.08,0.906,0.769,0.623,0.478,0.797,0.457,0.574,0.436,0.791,0.468,0.691,0.635,0.496,0.452,0.677
SWDKRYCEAGC [ITGA2B_Y197_F202C],0.957,1.23,0.651,0.859,0.446,0.41,0.507,0.541,0.383,0.887,0.454,0.417,0.641,0.401,0.984,0.357
LKKLEYLNLPL [LRRC6_Y70_A74P],10.3,1.4,0.69,0.818,0.531,0.441,1.26,1.12,0.47,0.741,0.364,0.518,0.694,0.423,0.622,0.374
DYTEAYNSKIK [CLK1_Y305_P307S],0.587,0.582,1,0.897,0.446,0.449,0.514,0.585,0.377,0.969,0.339,0.382,0.965,0.454,0.584,0.492
SSENPCATIKD [MEGF10_Y1030_Y1030C],0.795,0.806,0.541,0.812,0.43,0.494,0.554,0.602,0.445,0.823,0.468,0.492,0.66,0.438,0.509,0.465
TSQSQYFSFRE [CCDC170_Y323],1.15,0.999,0.796,0.745,0.315,0.368,1.62,1.49,0.461,0.891,3.07,1.72,1.29,0.818,0.604,4.89
QELRRYLKSGV [MICA_Y194],0.764,0.384,0.465,0.652,0.765,0.875,0.582,0.804,0.626,0.787,0.553,0.957,0.566,0.544,0.659,0.577
FKNGDYNEVMK [LCT_Y1638],0.744,0.642,1.77,0.882,0.578,0.415,0.579,0.548,0.41,0.903,0.389,0.541,0.595,0.388,0.578,0.388
ECKHLYSRKEG [PTPN11_Y263_L261H],0.995,0.711,0.717,0.451,0.406,0.285,0.463,0.397,0.4,0.579,0.407,0.329,0.419,0.388,0.458,0.388
KVKVEYDMTVP [AHNAK_Y964_G962V],0.838,0.659,0.79,0.94,0.45,0.59,0.495,0.646,0.51,1.03,0.492,0.485,0.872,0.478,0.862,0.555
NPQKSYFILLY [WAS_Y83_R86L],0.914,0.827,0.573,0.958,0.657,0.551,1.79,1.38,0.437,1.19,0.421,0.434,1.19,0.396,0.719,0.416

# Further lines, with some results ahead:
SH2 binding enrichment [14],SH2 binding enrichment [15],SH2 binding enrichment [16],Sequence,phosphorylation enrichment [1],phosphorylation enrichment [2],phosphorylation enrichment [3],phosphorylation enrichment [4],phosphorylation enrichment [5],phosphorylation enrichment [6],phosphorylation enrichment [7],phosphorylation enrichment [8],phosphorylation enrichment [9],phosphorylation enrichment [10],phosphorylation enrichment [11],phosphorylation enrichment [12],phosphorylation enrichment [13]
0.718,0.695,0.456,FKGIVYSVSSD [DCX_Y70_A71S],1.09,0.535,0.668,0.548,0.666,0.399,1.11,0.666,0.547,0.959,0.488,0.887,0.722
1.3,0.68,0.914,HKLSYCEYDFE [BTK_Y40_Y40C],1.78,0.857,1.14,0.762,1.34,0.687,1.76,1.68,0.746,1.29,0.535,0.871,2.46
0.685,1.01,0.532,IRDENYGEGSS [ACO2_Y665_G661R],0.917,0.364,0.422,0.437,0.559,0.588,0.936,0.421,0.925,0.733,0.46,0.639,0.481
0.755,1.09,0.547,MANYVYKAGPS [MAML2_Y515_M514V],0.448,0.476,0.455,0.434,0.508,0.343,0.643,0.451,0.419,0.452,0.473,0.815,0.457
0.817,0.64,0.415,LGSWTYTKTVS [ROS1_Y144],1.94,2.19,1.04,1.19,1.44,0.8,2.38,0.86,1.05,1.61,0.519,0.965,0.774
1.68,0.757,0.502,EGLKVYVNGTL [ADGRD1_Y183],1.22,0.633,0.68,0.527,1.05,0.491,1.33,0.497,0.457,1.24,0.469,0.848,0.418
0.661,0.81,0.606,RRGLLYDSDEE [MCM2_Y137],1.25,0.796,0.642,0.898,1.3,1.08,1.13,1.29,1.16,0.77,0.855,0.59,0.763
0.657,0.785,0.38,EYFENYIEELK [PARP4_Y218],1.44,0.73,0.647,2.31,1.69,0.518,1.4,0.539,0.607,1.5,0.422,0.851,0.63
0.946,0.584,0.541,IIEDPYFGNDS [ACP1_Y132_YF],1.59,0.804,0.62,0.695,1.1,0.711,1.62,0.867,0.96,1.45,0.651,1.04,1.74
1.06,0.593,0.512,EPVSDYINASI [PTPN11_Y304_N308S],1.05,0.608,0.566,0.569,0.651,0.5,1.03,0.385,0.49,0.953,0.494,0.909,0.526
1.05,0.806,0.665,EEGRVYVFRLS [ITGAE_Y549_YF],1.13,0.606,0.605,0.508,0.836,0.533,1.37,0.509,0.617,1.14,0.475,0.812,0.625
0.925,0.484,0.679,KSMFVYCTPNK [ATP2A2_Y497_S495F],1.22,0.6,0.673,0.587,0.768,0.565,1.19,0.473,0.568,1.12,0.452,1.05,0.494
1.01,0.644,1.04,KGEDFYCVTCP [FHL1_Y149_H154P],1.47,0.586,0.589,1.15,1.04,2.65,1.01,4.22,2.96,1.33,6.08,0.646,3.64
0.732,10,1.55,SSAAGYACLAF [MVD_Y131_YF],0.948,0.536,0.455,0.446,0.763,0.493,1.07,0.428,0.585,0.919,0.538,0.946,0.494
0.858,0.664,0.499,WQQQSYLGSGI [CTNNB1_Y30_D32G],0.748,0.362,0.469,0.634,0.493,0.389,0.61,0.372,0.471,0.544,0.357,0.521,0.421
0.618,0.701,0.491,GDFFCYLAEVA [YWHAG_Y133_R132C_YF],1.33,0.863,0.655,0.557,0.922,0.865,1.52,0.702,0.608,1.39,0.546,1.12,0.484
0.875,0.731,1.1,FGCGMYSHLQG [LGR4_Y848_D844G_YF],1.1,0.879,0.744,0.795,0.916,0.745,1.09,0.713,1.71,1.06,3.76,1.04,2.53
1.25,1.31,1.97,GHLYAYDWIRI [BEST1_Y227_S231R],1.44,3.44,2.42,4.35,2.73,15.8,3.03,1.84,3.12,0.941,9.27,0.857,2.28
0.757,0.607,0.742,NVVVPYEPPEV [TP53_Y220_S215N],1.11,0.612,0.708,0.443,0.69,0.58,1.15,0.641,0.56,1.11,0.493,0.768,0.543
